Measurements as given in PMC6224480, “Insights into Kinesin-1 Activation from the Crystal Structure of KLC2 Bound to JIP3” (Structure(London, England:1993), 2018).
Blank lines part the entries; values can stand above or below the molecule they belong to.

How the values were obtained:
[1] = test system: KLC2^TPR; assay: ITC of KLC2^TPR binding to GST3C-JIP3^LZ, two-stage sequential model; parameters: species or system murine; conditions: for K, macroscopic association constant / ΔH / –TΔS: ITC, 25°C, 0.5 M NaCl, pH 7.5, globally fitted over four experiments; for K, macroscopic association constant: 25 mM HEPES, 5 mM MgCl2, 1 mM TCEP
Description: For ITC studies with the KLC2^TPR and GST-JIP3^LZ, the high KLC2^TPR concentrations required to use this protein as titrant necessitated a higher salt concentration than that used for crystallographic studies. The KLC2^TPR was prepared as above for crystallographic studies but the final size exclusion chromatography step was performed in 500 mM NaCl, 25 mM HEPES, 5mM MgCl2, 1 mM TCEP (final pH 7.5). The GST-JIP3^LZ protein was bound to glutathione sepharose resin in batch as described above for the JIP3^LZ. The GST-JIP3^LZ protein was eluted in 0.25 M NaCl, 50 mM TRIS.HCl, 1 mM TCEP, 25 mM glutathione; final pH 7.5, and purified by size exclusion chromatography on a Superdex 200 16/600 column (GE Healthcare) equilibrated in 500 mM NaCl, 25 mM HEPES, 5mM MgCl2 and 1 mM TCEP (final pH 7.5).
To study the binding of the KLC2^TPR to GST3C-JIP3^LZ, the proteins were prepared by size exclusion chromatography in 0.5 M NaCl, 25 mM HEPES, 5 mM MgCl2, 1 mM TCEP, final pH 7.5. ITC measurements were performed on a MicroCal iTC200 calorimeter (Malvern) at 25°C, with a differential power of 5.0 μcal/s and stirring at 750 rpm. Experiments consisted of an initial sacrificial 0.5 μl injection, followed 120 s later by 19 injections of 2 μl spread over 4 s, spaced 120 s apart. Thermograms were integrated and corrected for heats of dilution using NITPIC (http://biophysics.swmed.edu/MBR/software.html). The resulting isotherms were analysed in SEDPHAT (http://www.analyticalultracentrifugation.com/sedphat/) ([Keller et al., 2012], [Zhao et al., 2015]). The isotherms from these experiments were globally fitted with the A + B + B → AB + B → ABB model. […] Figures were prepared using GUSSI (http://biophysics.swmed.edu/MBR/software.html).

[2] = CD spectroscopy; format: physicochemical; conditions: 20°C, 20 mM potassium phosphate pH 7.5, 0.5 mM DTT, SELCON3, 0.29, 0.14 and 0.086 mg/ml
Description: (§1) All CD spectra were recorded on a Chirascan CD spectrometer (Applied Photophysics) in quartz cuvettes with a 0.1 cm path length. Data were recorded at 20°C between 260 - 180 nm in 1 nm increments and a 2 nm bandwidth over an average of two scans. The KLC2^TPR-myc and Trp-JIP3^LZ proteins were dialysed extensively into 20 mM potassium phosphate pH 7.5, 0.5 mM DTT. Spectra were collected from KLC2^TPR-myc samples at concentrations of 0.29, 0.14 and 0.086 mg/ml. Trp-JIP3^LZ spectra were collected at 0.15, 0.074 and 0.044 mg/ml. One spectrum was recorded for each sample at each concentration and background-corrected by subtraction of a buffer-only spectrum. Corrected spectra were converted to units of mean residue ellipticity and deconvolved using the Dichroweb server ([Whitmore and Wallace, 2008]). KLC2^TPR-myc and Trp-JIP3^LZ spectra were analysed using the SELCON3 and CONTIN algorithms, respectively, using reference dataset set 4 ([Sreerama et al., 1999], [van Stokkum et al., 1990]). For each protein, the mean percentage of each secondary structure type, and the corresponding standard deviation, was calculated from the values obtained from the three concentrations. The secondary structure content for KLC2^TPR-myc and Trp-JIP3^LZ were calculated using the KLC2^TPR:JIP3^LZ crystal structure using the STRIDE server (http://webclu.bio.wzw.tum.de/cgi-bin/stride/stridecgi.py) ([Frishman and Argos, 1995]).

[3] = Secondary structure content calculated from the KLC2^TPR:JIP3^LZ crystal structure (STRIDE)
Description: as §1, with “Corrected spectra were converted to units of mean residue ellipticity and deconvolved using the Dichroweb server ([Whitmore and Wallace, 2008]).” left out

[4] = SEC-MALLS; format: physicochemical; conditions: 25 mM HEPES pH 7.5, 0.1 M NaCl, 1 mM TCEP
Description: Fifty microliters of JIP3^LZ was injected onto a WTC-030S5 column, pre-equilibrated with buffer containing 25 mM HEPES pH 7.5, 0.1 M NaCl and 1 mM TCEP at a flow rate of 1 ml/min. Data were recorded using a DAWN 8+ multi-angle light scattering (LS) detector, an Optilab T-rEX differential refractive index (dRI) detector and UV absorbance (UV) detector (Wyatt Technology) and analyzed with the Astra 6.2 software package provided by the manufacturer (Wyatt Technology).

[5] = stage A + B + B → BA + B (first KLC2^TPR)
[6] = stage BA + B → BAB (second KLC2^TPR)

thermodynamic driving force ([1]; binding of the first KLC2^TPR): enthalpically driven
thermodynamic driving force ([1]; binding of the second KLC2^TPR): entropically driven
K, macroscopic association constant [1, 5]: 0.1317 µM⁻¹
ΔH [1, 5]: -18.756 kcal/mol
–TΔS [1, 5]: 11.772 kcal/mol
K, macroscopic association constant [1, 6]: 0.1315 µM⁻¹
ΔH [1, 6]: 0.952 kcal/mol
–TΔS [1, 6]: -7.935 kcal/mol
cooperativity of binding of two KLC2^TPR subunits ([1]; suggested by very similar macroscopic association constants): positive cooperativity
B1: GST-JIP3^LZ: GST and 3C site fused to murine JIP3 isoform A leucine zipper, residues 417-487 (protein, UniProt Q9ESN9 417-487, looked up, fragment)
chain: MGKEVGNLLLENSQLLETKNALNVVKNDLIAKVDQLSGEQEVLKGELEAAKQAKVKLENRIKELEEELKRV
modifications: isoform A N-terminal GST tag, 3C site

B2: KLC2^TPR-myc: murine KLC2 residues 191-480 with … fused to the C-terminus (protein)
chain: GYEIPARLRTLHNLVIQYASQGRYEVAVPLCKQALEDLEKTSGHDHPDVATMLNILALVYRDQNKYKDAAHLLNDALAIREKTLGKDHPAVAATLNNLAVLYGKRGKYKEAEPLCKRALEIREKVLGKFHPDVAKQLSNLALLCQNQGKAEEVEYYYRRALEIYATRLGPDDPNVAKTKNNLASCYLKQGKYQDAETLYKEILTRAHEKEFGSVNGENKPIWMHAEEREESKDKRRDRRPMEYGSWYKACKVDSPTVNTTLRTLGALYRPEGKLEAAHTLEDCASRSRKQ
modifications: left off: His6-SUMO, N-terminal, cleaved | myc (…), C-terminal, kept
secondary structure content by CD versus crystal structure [2]: very similar to that calculated from the KLC2^TPR:JIP3^LZ crystal structure

B3: JIP3^LZ: JIP3 leucine zipper domain, residues 417-487 of murine JIP3 isoform A (protein)
chain: WMGKEVGNLLLENSQLLETKNALNVVKNDLIAKVDQLSGEQEVLKGELEAAKQAKVKLENRIKELEEELKRV
modifications: left off: GST, N-terminal, cleaved
notes: JIP3 leucine zipper domain, residues 417-487 of murine JIP3 isoform A
α-helical content calculated from crystal structure [3]: 77%
oligomeric state in solution [4]: stable dimer
